{"source": "paper PMC5540154", "biological_target": "D. melanogaster Isu (fIscU) (D. melanogaster) (UniProt Q9VHK6)", "experiment": "SEC"}
{"substance": "D. melanogaster Isu (fIscU) (from UniProt Q9VHK6 1-154) (natural protein)", "values": [{"measurement": "stoichiometry N", "value": 2}]}
